This is an account of results in patent US20220089702A1 (published 2022).

The target of this assay is recombinant human tau. Description: SPR. In general terms: In SPR one partner is held on a chip, and binding of the other changes the refractive index at the surface.

B1: 7G6 (antibody, V domains shown)
VH: EVQLQQSGAELVRPGALVKLSCKASGFNIKDYYIHWVKQRPEQGLEWIGWIDPENGETVYDPKFQGKASITSDTSSNTAYLQLRSLTSEDTAVYYSTSLDFWGQGTSVTVSS
VL: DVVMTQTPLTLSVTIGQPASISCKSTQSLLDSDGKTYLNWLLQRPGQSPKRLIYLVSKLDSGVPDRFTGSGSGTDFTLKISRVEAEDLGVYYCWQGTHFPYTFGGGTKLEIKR
A word on the Kd: it is the concentration at which binding is half-saturated. Turning to B1, the Kd amounted to 5.77 nM.
